Results on twelve variants are retold here after IntAct's records for PubMed 35512704.

B1: Mothers against decapentaplegic homolog 4 (Homo sapiens), Q13485 (parent)
chain: MDNMSITNTPTSNDACLSIVHSLMCHRQGGESETFAKRAIESLVKKLKEKKDELDSLITAITTNGAHPSKCVTIQRTLDGRLQVAGRKGFPHVIYARLWRWPDLHKNELKHVKYCQYAFDLKCDSVCVNPYHYERVVSPGIDLSGLTLQSNAPSSMMVKDEYVHDFEGQPSLSTEGHSIQTIQHPPSNRASTETYSTPALLAPSESNATSTANFPNIPVASTSQPASILGGSHSEGLLQIASGPQPGQQQNGFTGQPATYHHNSTTTWTGSRTAPYTPNLPHHQNGHLQHHPPMPPHPGHYWPVHNELAFQPPISNHPAPEYWCSIAYFEMDVQVGETFKVPSSCPIVTVDGYVDPSGGDRFCLGQLSNVHRTEAIERARLHIGKGVQLECKGEGDVWVRCLSDHAVFVQSYYLDREAGRAPGDAVHKIYPSAYIKVFDLRQCHRQMQQQAATAQAAAAAQAAAVAGNIPGPGSVGGIAPAISLSAAAGIGVDDLRRLCILRMSFVKGWGPDYPRQSIKETPCWIEIHLHRALQLLDEVLHTMPIADPQPLD
partner: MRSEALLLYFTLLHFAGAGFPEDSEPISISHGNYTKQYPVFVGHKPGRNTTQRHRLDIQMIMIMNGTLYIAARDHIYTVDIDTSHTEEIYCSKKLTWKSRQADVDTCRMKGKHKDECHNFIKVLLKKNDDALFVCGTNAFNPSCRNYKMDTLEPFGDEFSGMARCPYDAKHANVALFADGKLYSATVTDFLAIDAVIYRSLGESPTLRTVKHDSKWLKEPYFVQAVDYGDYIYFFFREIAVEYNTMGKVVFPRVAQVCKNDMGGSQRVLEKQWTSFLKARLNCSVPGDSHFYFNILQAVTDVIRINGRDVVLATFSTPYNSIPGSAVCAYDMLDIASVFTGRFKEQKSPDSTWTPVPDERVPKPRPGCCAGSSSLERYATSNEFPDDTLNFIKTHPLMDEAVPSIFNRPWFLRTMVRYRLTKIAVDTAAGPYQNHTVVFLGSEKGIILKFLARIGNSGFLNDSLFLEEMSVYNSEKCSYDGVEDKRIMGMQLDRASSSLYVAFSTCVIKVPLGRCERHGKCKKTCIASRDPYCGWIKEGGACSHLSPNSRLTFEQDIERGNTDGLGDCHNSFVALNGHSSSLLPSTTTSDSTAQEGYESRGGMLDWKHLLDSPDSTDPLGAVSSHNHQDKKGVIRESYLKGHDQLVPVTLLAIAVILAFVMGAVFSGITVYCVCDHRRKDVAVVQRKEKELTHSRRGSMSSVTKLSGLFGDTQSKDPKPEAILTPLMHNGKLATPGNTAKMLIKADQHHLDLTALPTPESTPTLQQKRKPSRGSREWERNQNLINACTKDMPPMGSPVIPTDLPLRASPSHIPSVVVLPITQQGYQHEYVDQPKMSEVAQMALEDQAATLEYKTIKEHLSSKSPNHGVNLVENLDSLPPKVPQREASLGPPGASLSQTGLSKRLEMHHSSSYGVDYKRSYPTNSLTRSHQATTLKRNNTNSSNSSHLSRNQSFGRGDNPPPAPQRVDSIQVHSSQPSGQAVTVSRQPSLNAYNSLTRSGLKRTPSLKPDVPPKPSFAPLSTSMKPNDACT
B2: Mothers against decapentaplegic homolog 4 (Homo sapiens), Q13485 (parent)
chain: B1 chain
partner: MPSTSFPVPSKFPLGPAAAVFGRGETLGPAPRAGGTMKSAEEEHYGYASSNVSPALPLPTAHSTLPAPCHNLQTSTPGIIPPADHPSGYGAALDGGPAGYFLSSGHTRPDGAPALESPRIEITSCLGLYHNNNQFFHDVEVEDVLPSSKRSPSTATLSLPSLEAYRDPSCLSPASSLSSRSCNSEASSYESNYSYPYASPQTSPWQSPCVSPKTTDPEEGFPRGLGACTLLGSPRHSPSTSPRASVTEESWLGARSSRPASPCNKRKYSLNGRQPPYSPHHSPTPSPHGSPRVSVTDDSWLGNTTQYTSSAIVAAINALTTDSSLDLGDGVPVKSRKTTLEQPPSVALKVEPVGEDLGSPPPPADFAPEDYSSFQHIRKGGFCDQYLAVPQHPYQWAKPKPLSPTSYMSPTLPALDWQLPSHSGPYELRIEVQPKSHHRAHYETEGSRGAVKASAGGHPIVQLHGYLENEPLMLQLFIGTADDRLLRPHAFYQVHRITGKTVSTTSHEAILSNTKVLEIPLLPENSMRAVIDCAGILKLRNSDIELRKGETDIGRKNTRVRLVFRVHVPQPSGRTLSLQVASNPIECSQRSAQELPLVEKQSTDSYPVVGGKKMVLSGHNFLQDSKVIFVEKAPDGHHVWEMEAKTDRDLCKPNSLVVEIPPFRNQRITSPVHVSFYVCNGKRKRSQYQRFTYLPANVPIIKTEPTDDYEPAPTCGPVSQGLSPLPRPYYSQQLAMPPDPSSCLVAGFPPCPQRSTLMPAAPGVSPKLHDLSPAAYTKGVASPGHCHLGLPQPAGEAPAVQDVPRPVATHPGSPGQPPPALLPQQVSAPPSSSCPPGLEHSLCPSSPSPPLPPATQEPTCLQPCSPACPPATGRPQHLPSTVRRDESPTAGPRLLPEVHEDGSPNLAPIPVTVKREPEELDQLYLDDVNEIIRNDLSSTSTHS
B3: Mothers against decapentaplegic homolog 4 (Homo sapiens), Q13485 (parent)
chain: B1 chain
partner: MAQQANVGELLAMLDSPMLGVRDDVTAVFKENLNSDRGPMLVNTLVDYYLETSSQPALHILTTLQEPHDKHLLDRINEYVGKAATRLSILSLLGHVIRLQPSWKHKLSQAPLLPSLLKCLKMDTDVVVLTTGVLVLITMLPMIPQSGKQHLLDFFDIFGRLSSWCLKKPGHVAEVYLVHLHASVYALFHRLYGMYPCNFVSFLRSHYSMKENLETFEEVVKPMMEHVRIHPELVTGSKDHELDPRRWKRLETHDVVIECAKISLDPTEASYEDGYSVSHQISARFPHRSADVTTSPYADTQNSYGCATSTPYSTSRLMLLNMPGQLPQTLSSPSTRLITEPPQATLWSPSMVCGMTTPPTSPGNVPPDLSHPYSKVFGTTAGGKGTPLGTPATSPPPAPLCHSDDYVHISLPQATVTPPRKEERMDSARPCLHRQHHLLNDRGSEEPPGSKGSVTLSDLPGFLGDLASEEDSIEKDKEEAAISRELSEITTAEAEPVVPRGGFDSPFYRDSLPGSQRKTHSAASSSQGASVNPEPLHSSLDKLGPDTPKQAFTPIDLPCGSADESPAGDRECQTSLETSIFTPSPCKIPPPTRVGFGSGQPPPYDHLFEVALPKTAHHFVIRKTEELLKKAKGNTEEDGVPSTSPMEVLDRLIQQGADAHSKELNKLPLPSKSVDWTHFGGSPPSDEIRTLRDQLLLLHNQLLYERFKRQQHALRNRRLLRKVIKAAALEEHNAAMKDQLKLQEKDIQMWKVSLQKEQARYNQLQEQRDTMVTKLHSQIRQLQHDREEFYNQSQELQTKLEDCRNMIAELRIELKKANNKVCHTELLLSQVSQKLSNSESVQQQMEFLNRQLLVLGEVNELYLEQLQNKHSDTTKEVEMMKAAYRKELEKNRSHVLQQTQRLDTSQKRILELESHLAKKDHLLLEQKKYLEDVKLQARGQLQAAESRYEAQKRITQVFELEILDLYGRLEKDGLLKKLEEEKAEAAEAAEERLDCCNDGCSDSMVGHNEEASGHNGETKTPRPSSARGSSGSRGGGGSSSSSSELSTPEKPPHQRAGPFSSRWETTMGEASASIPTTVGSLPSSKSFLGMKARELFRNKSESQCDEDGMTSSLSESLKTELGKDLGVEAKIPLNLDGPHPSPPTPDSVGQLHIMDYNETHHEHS
B4: Mothers against decapentaplegic homolog 4 (Homo sapiens), Q13485 (parent)
chain: B1 chain
partner: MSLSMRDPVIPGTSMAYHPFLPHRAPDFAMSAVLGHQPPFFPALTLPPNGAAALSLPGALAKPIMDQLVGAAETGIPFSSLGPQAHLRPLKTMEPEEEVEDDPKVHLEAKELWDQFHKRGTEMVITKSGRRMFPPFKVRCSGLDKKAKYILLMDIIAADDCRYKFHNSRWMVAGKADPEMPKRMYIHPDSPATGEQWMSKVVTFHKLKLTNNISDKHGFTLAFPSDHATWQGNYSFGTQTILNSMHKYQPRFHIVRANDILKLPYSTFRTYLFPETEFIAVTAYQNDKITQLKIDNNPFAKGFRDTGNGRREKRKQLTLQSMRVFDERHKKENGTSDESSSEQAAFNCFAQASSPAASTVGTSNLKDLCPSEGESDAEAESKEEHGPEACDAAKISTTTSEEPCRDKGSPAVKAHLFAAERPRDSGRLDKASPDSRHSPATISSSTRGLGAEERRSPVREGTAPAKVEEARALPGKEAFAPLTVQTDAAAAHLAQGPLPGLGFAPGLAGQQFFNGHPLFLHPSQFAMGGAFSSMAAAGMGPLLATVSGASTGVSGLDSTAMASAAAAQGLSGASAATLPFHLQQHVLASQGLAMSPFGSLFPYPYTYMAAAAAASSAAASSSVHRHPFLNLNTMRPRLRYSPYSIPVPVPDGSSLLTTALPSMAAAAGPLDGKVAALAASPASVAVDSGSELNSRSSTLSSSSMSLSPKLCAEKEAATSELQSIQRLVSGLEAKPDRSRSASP

In one test the parent is B1. Conditions: with sem6a_human SEMA6A.
In the case of R361C, the “effect of a mutation on the interaction” value is reported as “with no effect”.

In the next test the parent is B2. Particulars: with nfac1_human NFATC1, O95644.
Regarding G386D, the “effect of a mutation on the interaction” value is reported as “with no effect”.

Variants of B2 are the subject of a further test. Particulars: with nfac1_human NFATC1, O95644. The source holds these as a separate data set.
As for R361H, the “effect of a mutation on the interaction” value is “with no effect”.

Variants of B2 are the subject of another test. Particulars: with nfac1_human NFATC1, O95644. The source holds these as a separate data set.
For the variant R361C, the “effect of a mutation on the interaction” value is listed as “with no effect”.

Variants of B2 are the subject of the next test. Conditions: with nfac1_human NFATC1, O95644. The source holds these as a separate data set.
Take D351H: the “effect of a mutation on the interaction” value is given as “with no effect”.

The variants in the next test derive from B3. Particulars: with tsc1_human TSC1, Q92574.
On to G386D, for which the “effect of a mutation on the interaction” value is given as “with no effect”.

Variants of B3 are the subject of another test. Conditions: with tsc1_human TSC1, Q92574. The source holds these as a separate data set.
With D351H, the “effect of a mutation on the interaction” value is recorded as “with no effect”.

The variants in the next test derive from B3. Particulars: with tsc1_human TSC1, Q92574. The source holds these as a separate data set.
R361H: the “effect of a mutation on the interaction” value is “with no effect”.

Variants of B3 are the subject of another test. Particulars: with tsc1_human TSC1, Q92574. This is another data set of the same source.
Take R361C: the “effect of a mutation on the interaction” value is listed as “with no effect”.

Variants of B4 are the subject of a further test. Conditions: with tbx3_human TBX3, O15119.
For D351H, the “effect of a mutation on the interaction” value was “with no effect”.

In the next test the parent is B4. Particulars: with tbx3_human TBX3, O15119. This is another data set of the same source.
R361C: the “effect of a mutation on the interaction” value is on record as “with no effect”.

In another test the parent is B4. Conditions: with tbx3_human TBX3, O15119. This is another data set of the same source.
In the case of R361H, the “effect of a mutation on the interaction” value is recorded as “with no effect”.
